Reference: patent US20140087995A1 (published 2014)
Numbered stars: 1 amine (or outer) side, 2 acyl side, 3 side chain; on linkers, the order of the positions; unused ones are H or OH. Bridge positions count the residues as written; N and C are the ends. * marks the point of attachment. C20 diacid = O=C(O)CCCCCCCCCCCCCCCCCCC(=O)*; γGlu = O=C(O)[C@H](CCC(=O)[*:2])N[*:1]

T1: human calcitonin receptor (human, UniProt P30988 25-474)
T1 construct: whole, on cells; also called hCTR; hCT
T1 sequence (looked up): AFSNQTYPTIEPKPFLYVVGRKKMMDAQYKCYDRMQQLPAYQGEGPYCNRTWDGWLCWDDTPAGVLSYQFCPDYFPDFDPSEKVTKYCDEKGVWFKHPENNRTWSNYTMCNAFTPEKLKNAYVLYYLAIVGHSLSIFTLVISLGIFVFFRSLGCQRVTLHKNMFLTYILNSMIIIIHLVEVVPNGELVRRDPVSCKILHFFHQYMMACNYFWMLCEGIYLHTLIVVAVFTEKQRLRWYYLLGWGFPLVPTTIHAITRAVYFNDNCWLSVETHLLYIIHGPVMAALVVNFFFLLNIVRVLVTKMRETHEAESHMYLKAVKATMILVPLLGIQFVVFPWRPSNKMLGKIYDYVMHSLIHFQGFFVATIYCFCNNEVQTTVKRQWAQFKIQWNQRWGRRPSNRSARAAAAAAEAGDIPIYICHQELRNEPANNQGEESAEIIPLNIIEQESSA

B1: N^α1-[(4S)-4-carboxy-4-(19-carboxynonadecanoylamino)butanoyl]-[Glu14,Arg17,Pro21,Pro27,His35]-h-amylin (peptide)
peptide: {C20 diacid-γGlu}-KCNTATCATQRLAEFLRHSSPNFGAIPSSTNVGSHTY-NH2
modifications: disulfide 2-7
SMILES: CC[C@H](C)[C@H](NC(=O)[C@H](C)NC(=O)CNC(=O)[C@H](Cc1ccccc1)NC(=O)[C@H](CC(N)=O)NC(=O)[C@@H]1CCCN1C(=O)[C@H](CO)NC(=O)[C@H](CO)NC(=O)[C@H](Cc1c[nH]cn1)NC(=O)[C@H](CCCNC(=N)N)NC(=O)[C@H](CC(C)C)NC(=O)[C@H](Cc1ccccc1)NC(=O)[C@H](CCC(=O)O)NC(=O)[C@H](C)NC(=O)[C@H](CC(C)C)NC(=O)[C@H](CCCNC(=N)N)NC(=O)[C@H](CCC(N)=O)NC(=O)[C@@H](NC(=O)[C@H](C)NC(=O)[C@@H]1CSSC[C@H](NC(=O)[C@H](CCCCN)NC(=O)CC[C@H](NC(=O)CCCCCCCCCCCCCCCCCCC(=O)O)C(=O)O)C(=O)N[C@@H](CC(N)=O)C(=O)N[C@@H]([C@@H](C)O)C(=O)N[C@@H](C)C(=O)N[C@@H]([C@@H](C)O)C(=O)N1)[C@@H](C)O)C(=O)N1CCC[C@H]1C(=O)N[C@@H](CO)C(=O)N[C@@H](CO)C(=O)N[C@H](C(=O)N[C@@H](CC(N)=O)C(=O)N[C@H](C(=O)NCC(=O)N[C@@H](CO)C(=O)N[C@@H](Cc1c[nH]cn1)C(=O)N[C@H](C(=O)N[C@@H](Cc1ccc(O)cc1)C(N)=O)[C@@H](C)O)C(C)C)[C@@H](C)O
notes: also called compound 18
B2: N^α1-[(4S)-4-carboxy-4-[[(4S)-4-carboxy-4-(19-carboxynonadecanoylamino)butanoyl]amino]butanoyl]-[Glu14,Arg17,Pro21,Pro27,Pro37]-h-amylin (peptide)
peptide: {C20 diacid-γGlu-γGlu}-KCNTATCATQRLAEFLRHSSPNFGAIPSSTNVGSNTP-NH2
modifications: disulfide 2-7
SMILES: CC[C@H](C)[C@H](NC(=O)[C@H](C)NC(=O)CNC(=O)[C@H](Cc1ccccc1)NC(=O)[C@H](CC(N)=O)NC(=O)[C@@H]1CCCN1C(=O)[C@H](CO)NC(=O)[C@H](CO)NC(=O)[C@H](Cc1c[nH]cn1)NC(=O)[C@H](CCCNC(=N)N)NC(=O)[C@H](CC(C)C)NC(=O)[C@H](Cc1ccccc1)NC(=O)[C@H](CCC(=O)O)NC(=O)[C@H](C)NC(=O)[C@H](CC(C)C)NC(=O)[C@H](CCCNC(=N)N)NC(=O)[C@H](CCC(N)=O)NC(=O)[C@@H](NC(=O)[C@H](C)NC(=O)[C@@H]1CSSC[C@H](NC(=O)[C@H](CCCCN)NC(=O)CC[C@H](NC(=O)CC[C@H](NC(=O)CCCCCCCCCCCCCCCCCCC(=O)O)C(=O)O)C(=O)O)C(=O)N[C@@H](CC(N)=O)C(=O)N[C@@H]([C@@H](C)O)C(=O)N[C@@H](C)C(=O)N[C@@H]([C@@H](C)O)C(=O)N1)[C@@H](C)O)C(=O)N1CCC[C@H]1C(=O)N[C@@H](CO)C(=O)N[C@@H](CO)C(=O)N[C@H](C(=O)N[C@@H](CC(N)=O)C(=O)N[C@H](C(=O)NCC(=O)N[C@@H](CO)C(=O)N[C@@H](CC(N)=O)C(=O)N[C@H](C(=O)N1CCC[C@H]1C(N)=O)[C@@H](C)O)C(C)C)[C@@H](C)O
notes: also called compound 14
B3: N^α1-[(4S)-4-carboxy-4-(19-carboxynonadecanoylamino)butanoyl]-[Glu14,Arg17,Pro21,Pro28,Glu35]-h-amylin (peptide)
peptide: {C20 diacid-γGlu}-KCNTATCATQRLAEFLRHSSPNFGAILPSTNVGSETY-NH2
modifications: disulfide 2-7
notes: also called compound 33
B4: N^α1-[(4S)-4-carboxy-4-(19-carboxynonadecanoylamino)butanoyl]-[Glu14,Arg17,Pro21,Pro27,Pro37]-h-amylin (peptide)
peptide: {C20 diacid-γGlu}-KCNTATCATQRLAEFLRHSSPNFGAIPSSTNVGSNTP-NH2
modifications: disulfide 2-7
SMILES: CC[C@H](C)[C@H](NC(=O)[C@H](C)NC(=O)CNC(=O)[C@H](Cc1ccccc1)NC(=O)[C@H](CC(N)=O)NC(=O)[C@@H]1CCCN1C(=O)[C@H](CO)NC(=O)[C@H](CO)NC(=O)[C@H](Cc1c[nH]cn1)NC(=O)[C@H](CCCNC(=N)N)NC(=O)[C@H](CC(C)C)NC(=O)[C@H](Cc1ccccc1)NC(=O)[C@H](CCC(=O)O)NC(=O)[C@H](C)NC(=O)[C@H](CC(C)C)NC(=O)[C@H](CCCNC(=N)N)NC(=O)[C@H](CCC(N)=O)NC(=O)[C@@H](NC(=O)[C@H](C)NC(=O)[C@@H]1CSSC[C@H](NC(=O)[C@H](CCCCN)NC(=O)CC[C@H](NC(=O)CCCCCCCCCCCCCCCCCCC(=O)O)C(=O)O)C(=O)N[C@@H](CC(N)=O)C(=O)N[C@@H]([C@@H](C)O)C(=O)N[C@@H](C)C(=O)N[C@@H]([C@@H](C)O)C(=O)N1)[C@@H](C)O)C(=O)N1CCC[C@H]1C(=O)N[C@@H](CO)C(=O)N[C@@H](CO)C(=O)N[C@H](C(=O)N[C@@H](CC(N)=O)C(=O)N[C@H](C(=O)NCC(=O)N[C@@H](CO)C(=O)N[C@@H](CC(N)=O)C(=O)N[C@H](C(=O)N1CCC[C@H]1C(N)=O)[C@@H](C)O)C(C)C)[C@@H](C)O
notes: also called compound 8
B5: N^α1-[(4S)-4-carboxy-4-(19-carboxynonadecanoylamino)butanoyl]-[His14,Arg17,Pro21,Pro27,Glu35]-h-amylin (peptide)
peptide: {C20 diacid-γGlu}-KCNTATCATQRLAHFLRHSSPNFGAIPSSTNVGSETY-NH2
modifications: disulfide 2-7
SMILES: CC[C@H](C)[C@H](NC(=O)[C@H](C)NC(=O)CNC(=O)[C@H](Cc1ccccc1)NC(=O)[C@H](CC(N)=O)NC(=O)[C@@H]1CCCN1C(=O)[C@H](CO)NC(=O)[C@H](CO)NC(=O)[C@H](Cc1c[nH]cn1)NC(=O)[C@H](CCCNC(=N)N)NC(=O)[C@H](CC(C)C)NC(=O)[C@H](Cc1ccccc1)NC(=O)[C@H](Cc1c[nH]cn1)NC(=O)[C@H](C)NC(=O)[C@H](CC(C)C)NC(=O)[C@H](CCCNC(=N)N)NC(=O)[C@H](CCC(N)=O)NC(=O)[C@@H](NC(=O)[C@H](C)NC(=O)[C@@H]1CSSC[C@H](NC(=O)[C@H](CCCCN)NC(=O)CC[C@H](NC(=O)CCCCCCCCCCCCCCCCCCC(=O)O)C(=O)O)C(=O)N[C@@H](CC(N)=O)C(=O)N[C@@H]([C@@H](C)O)C(=O)N[C@@H](C)C(=O)N[C@@H]([C@@H](C)O)C(=O)N1)[C@@H](C)O)C(=O)N1CCC[C@H]1C(=O)N[C@@H](CO)C(=O)N[C@@H](CO)C(=O)N[C@H](C(=O)N[C@@H](CC(N)=O)C(=O)N[C@H](C(=O)NCC(=O)N[C@@H](CO)C(=O)N[C@@H](CCC(=O)O)C(=O)N[C@H](C(=O)N[C@@H](Cc1ccc(O)cc1)C(N)=O)[C@@H](C)O)C(C)C)[C@@H](C)O
notes: also called compound 30
B6: N^α1-[(4S)-4-carboxy-4-(19-carboxynonadecanoylamino)butanoyl]-[Glu14,Arg17,Pro21,Pro27,Pro31]-h-amylin (peptide)
peptide: {C20 diacid-γGlu}-KCNTATCATQRLAEFLRHSSPNFGAIPSSTPVGSNTY-NH2
modifications: disulfide 2-7
SMILES: CC[C@H](C)[C@H](NC(=O)[C@H](C)NC(=O)CNC(=O)[C@H](Cc1ccccc1)NC(=O)[C@H](CC(N)=O)NC(=O)[C@@H]1CCCN1C(=O)[C@H](CO)NC(=O)[C@H](CO)NC(=O)[C@H](Cc1c[nH]cn1)NC(=O)[C@H](CCCNC(=N)N)NC(=O)[C@H](CC(C)C)NC(=O)[C@H](Cc1ccccc1)NC(=O)[C@H](CCC(=O)O)NC(=O)[C@H](C)NC(=O)[C@H](CC(C)C)NC(=O)[C@H](CCCNC(=N)N)NC(=O)[C@H](CCC(N)=O)NC(=O)[C@@H](NC(=O)[C@H](C)NC(=O)[C@@H]1CSSC[C@H](NC(=O)[C@H](CCCCN)NC(=O)CC[C@H](NC(=O)CCCCCCCCCCCCCCCCCCC(=O)O)C(=O)O)C(=O)N[C@@H](CC(N)=O)C(=O)N[C@@H]([C@@H](C)O)C(=O)N[C@@H](C)C(=O)N[C@@H]([C@@H](C)O)C(=O)N1)[C@@H](C)O)C(=O)N1CCC[C@H]1C(=O)N[C@@H](CO)C(=O)N[C@@H](CO)C(=O)N[C@H](C(=O)N1CCC[C@H]1C(=O)N[C@H](C(=O)NCC(=O)N[C@@H](CO)C(=O)N[C@@H](CC(N)=O)C(=O)N[C@H](C(=O)N[C@@H](Cc1ccc(O)cc1)C(N)=O)[C@@H](C)O)C(C)C)[C@@H](C)O
notes: also called compound 31
B7: N^α1-[(4S)-4-carboxy-4-(19-carboxynonadecanoylamino)butanoyl]-[Glu14,Arg17,Pro21,Pro27,Pro29]-h-amylin (peptide)
peptide: {C20 diacid-γGlu}-KCNTATCATQRLAEFLRHSSPNFGAIPSPTNVGSNTY-NH2
modifications: disulfide 2-7
SMILES: CC[C@H](C)[C@H](NC(=O)[C@H](C)NC(=O)CNC(=O)[C@H](Cc1ccccc1)NC(=O)[C@H](CC(N)=O)NC(=O)[C@@H]1CCCN1C(=O)[C@H](CO)NC(=O)[C@H](CO)NC(=O)[C@H](Cc1c[nH]cn1)NC(=O)[C@H](CCCNC(=N)N)NC(=O)[C@H](CC(C)C)NC(=O)[C@H](Cc1ccccc1)NC(=O)[C@H](CCC(=O)O)NC(=O)[C@H](C)NC(=O)[C@H](CC(C)C)NC(=O)[C@H](CCCNC(=N)N)NC(=O)[C@H](CCC(N)=O)NC(=O)[C@@H](NC(=O)[C@H](C)NC(=O)[C@@H]1CSSC[C@H](NC(=O)[C@H](CCCCN)NC(=O)CC[C@H](NC(=O)CCCCCCCCCCCCCCCCCCC(=O)O)C(=O)O)C(=O)N[C@@H](CC(N)=O)C(=O)N[C@@H]([C@@H](C)O)C(=O)N[C@@H](C)C(=O)N[C@@H]([C@@H](C)O)C(=O)N1)[C@@H](C)O)C(=O)N1CCC[C@H]1C(=O)N[C@@H](CO)C(=O)N1CCC[C@H]1C(=O)N[C@H](C(=O)N[C@@H](CC(N)=O)C(=O)N[C@H](C(=O)NCC(=O)N[C@@H](CO)C(=O)N[C@@H](CC(N)=O)C(=O)N[C@H](C(=O)N[C@@H](Cc1ccc(O)cc1)C(N)=O)[C@@H](C)O)C(C)C)[C@@H](C)O
notes: also called compound 37

Target: T1, human calcitonin receptor
Assay: ratio of IC50 at hCTR to IC50 at the human amylin receptor (reference)
Method in brief: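 Membranes (35 ng/μL final) + SPA beads, 50 mM Hepes pH 7.4 buffer with 1 mM CaCl2, 5 mM MgCl₂, 0.1% OA, 0.02% Tween20; 120 min, 25° C, shaking; centrifuged, counted; IC₅₀ by one-site binding competition.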

In order of falling “Ratio hCT/hAmylin binding” value:
1. B5  23.6
2. B6  16
3. B1  9.2
4. B3  3.9
5. B7  2.3
6. B2  2.2
7. B4  0.5

Target: T1, human calcitonin receptor
Assay: SPA competition binding, membranes with human calcitonin receptor, displacement of 125I-calcitonin (Assay VII)
Method in brief: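 BHK hCTR membranes 35 ng/μL + SPA beads 0.05 mg/well; buffer 50 mM Hepes pH 7.4, 1 mM CaCl2, 5 mM MgCl₂, 0.1% OA, 0.02% Tween20. 120 min, 25° C., shaking. Scintillation count; IC50 by one-site binding competition.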

In order of rising IC50:
1. B4  0.038 nM
2. B2  0.432 nM
3. B7  2.18 nM
4. B6  3.26 nM
5. B3  3.61 nM
6. B1  5.09 nM
7. B5  21.6 nM
